Measurements from patent US20160185837A1 (AstraZeneca / MedImmune, published 2016).

Columns and labels:
Assay in all cases: cell-based or functional assay
human GIP receptor = biological target: T1, human GIP receptor (human, UniProt P48546 22-466)
T1 sequence (looked up): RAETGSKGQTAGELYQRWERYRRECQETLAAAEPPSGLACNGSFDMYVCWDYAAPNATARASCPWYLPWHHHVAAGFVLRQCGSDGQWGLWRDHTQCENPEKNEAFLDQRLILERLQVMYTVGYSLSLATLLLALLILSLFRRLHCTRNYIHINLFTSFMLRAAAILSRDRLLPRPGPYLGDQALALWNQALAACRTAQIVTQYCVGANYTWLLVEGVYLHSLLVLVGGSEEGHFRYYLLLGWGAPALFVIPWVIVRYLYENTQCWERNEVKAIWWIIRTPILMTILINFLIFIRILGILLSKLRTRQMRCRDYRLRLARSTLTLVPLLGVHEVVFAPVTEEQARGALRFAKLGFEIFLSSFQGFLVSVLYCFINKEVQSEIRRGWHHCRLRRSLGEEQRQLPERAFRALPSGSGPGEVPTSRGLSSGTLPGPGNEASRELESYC

rat GLP-1 receptor = biological target: T2, rat GLP-1 receptor (rat, UniProt P32301 22-463)
T2 sequence (looked up): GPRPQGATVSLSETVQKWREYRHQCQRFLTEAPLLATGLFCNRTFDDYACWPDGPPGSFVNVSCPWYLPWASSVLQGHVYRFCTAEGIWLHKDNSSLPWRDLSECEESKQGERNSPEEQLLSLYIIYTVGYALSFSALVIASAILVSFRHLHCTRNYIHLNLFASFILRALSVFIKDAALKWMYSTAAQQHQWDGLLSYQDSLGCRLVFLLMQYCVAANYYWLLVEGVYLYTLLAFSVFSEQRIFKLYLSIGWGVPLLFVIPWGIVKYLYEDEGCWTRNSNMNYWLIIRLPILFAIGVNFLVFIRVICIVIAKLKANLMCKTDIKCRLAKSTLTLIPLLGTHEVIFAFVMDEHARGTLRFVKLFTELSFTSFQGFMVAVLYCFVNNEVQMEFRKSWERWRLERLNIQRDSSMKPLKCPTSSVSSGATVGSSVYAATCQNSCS

mouse GIP receptor = biological target: T3, mouse GIP receptor (mouse, UniProt Q0P543 19-460)
T3 sequence (looked up): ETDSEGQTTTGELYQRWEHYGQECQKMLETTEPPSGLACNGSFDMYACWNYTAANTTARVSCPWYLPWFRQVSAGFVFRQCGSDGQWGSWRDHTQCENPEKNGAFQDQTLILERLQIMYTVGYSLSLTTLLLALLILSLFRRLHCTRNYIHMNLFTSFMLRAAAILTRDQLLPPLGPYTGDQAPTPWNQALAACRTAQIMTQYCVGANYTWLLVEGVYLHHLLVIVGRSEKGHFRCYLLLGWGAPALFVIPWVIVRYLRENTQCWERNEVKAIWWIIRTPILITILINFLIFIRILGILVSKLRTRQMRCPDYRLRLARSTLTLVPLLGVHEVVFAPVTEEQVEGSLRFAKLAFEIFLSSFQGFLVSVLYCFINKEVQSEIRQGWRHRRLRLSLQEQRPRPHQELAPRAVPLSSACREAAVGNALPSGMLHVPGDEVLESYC

rat GIP receptor = biological target: T4, rat GIP receptor (rat, UniProt P43219 19-455)
T4 sequence (looked up): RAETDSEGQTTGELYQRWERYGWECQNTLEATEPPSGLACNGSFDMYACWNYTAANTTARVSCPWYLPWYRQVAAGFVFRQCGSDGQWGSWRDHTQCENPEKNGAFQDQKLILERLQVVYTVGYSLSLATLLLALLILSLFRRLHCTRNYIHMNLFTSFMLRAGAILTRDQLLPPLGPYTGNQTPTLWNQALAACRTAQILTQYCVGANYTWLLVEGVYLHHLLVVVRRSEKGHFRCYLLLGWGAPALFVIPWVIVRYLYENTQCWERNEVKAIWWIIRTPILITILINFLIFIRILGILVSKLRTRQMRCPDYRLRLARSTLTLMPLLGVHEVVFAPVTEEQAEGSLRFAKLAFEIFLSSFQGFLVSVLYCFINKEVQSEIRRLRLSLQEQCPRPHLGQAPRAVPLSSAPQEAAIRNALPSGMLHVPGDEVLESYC

human GLP-1 receptor = human GLP-1 receptor (human, UniProt P43220 24-463)
human glucagon receptor = human glucagon receptor (human, UniProt P47871 26-477)
mouse GLP-1 receptor = biological target: T5, mouse GLP-1 receptor (mouse, UniProt O35659 22-463)
T5 sequence (looked up): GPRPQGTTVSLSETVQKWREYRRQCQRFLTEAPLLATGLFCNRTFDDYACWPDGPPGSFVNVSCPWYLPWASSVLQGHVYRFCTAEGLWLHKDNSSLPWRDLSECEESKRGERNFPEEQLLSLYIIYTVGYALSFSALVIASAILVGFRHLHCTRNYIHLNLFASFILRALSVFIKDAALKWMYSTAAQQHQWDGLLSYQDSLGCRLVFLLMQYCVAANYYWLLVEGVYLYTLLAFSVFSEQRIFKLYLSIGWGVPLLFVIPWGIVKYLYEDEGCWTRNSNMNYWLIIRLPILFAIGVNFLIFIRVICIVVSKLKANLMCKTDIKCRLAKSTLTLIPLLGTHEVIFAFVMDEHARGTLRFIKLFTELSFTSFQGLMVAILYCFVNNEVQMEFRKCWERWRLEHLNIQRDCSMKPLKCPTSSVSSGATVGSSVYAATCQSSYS

Binder	cAMP EC50 (human GIP receptor) [pM]	cAMP EC50 (rat GLP-1 receptor) [pM]	cAMP EC50 (mouse GIP receptor) [nM]	cAMP EC50 (rat GIP receptor) [pM]	cAMP EC50 (human GLP-1 receptor) [pM]	cAMP EC50 (human glucagon receptor) [nM]	cAMP EC50 (mouse GLP-1 receptor) [pM]	cAMP EC50, Batch 2 (human GIP receptor) [pM]	cAMP EC50, Batch 2 (rat GLP-1 receptor) [pM]	cAMP EC50, Batch 2 (mouse GIP receptor) [nM]	cAMP EC50, Batch 2 (rat GIP receptor) [pM]	cAMP EC50, Batch 2 (human GLP-1 receptor) [pM]	cAMP EC50, Batch 2 (human glucagon receptor) [nM]	cAMP EC50, Batch 2 (mouse GLP-1 receptor) [pM]
IP263 (Fc fusion) YSEGTFTSDYSKLLEEEAVRLFIEWLVKQPGGGGGSGGGGSGGGGSGGGGSATHTCPPCPAPEF	27	42	7000	1100	140	> 18000	960	–	–	–	–	–	–	–
IP260 (Fc fusion) YSEGTFTSDYSKLLEEEAVQLFIEWLVKGPGGGGGSGGGGSGGGGSGGGGSATHTCPPCPAPEF	33	250	2400	450	910	> 16000	5300	–	–	–	–	–	–	–
IP259 (Fc fusion) YSEGTFTSDYSKLLEKEAVRLFIEWLVKGPGGGGGSGGGGSGGGGSGGGGSATHTCPPCPAPEF	27	29	12	33	100	> 480	310	–	–	–	–	–	–	–
IP261 (Fc fusion) YSEGTFTSDYSKLLEEEAVRLFVEWLVKGPGGGGGSGGGGSGGGGSGGGGSATHTCPPCPAPEF	30	28	230	270	140	> 2400	340	–	–	–	–	–	–	–
IP264 (Fc fusion) YSEGTFTSDYSKLLEEEAVRLFIEWLVKGKGGGGGSGGGGSGGGGSGGGGSATHTCPPCPAPEF	17	26	97	94	100	> 9800	300	–	–	–	–	–	–	–
IP131 (Fc fusion) YSEGTFTSDYSKLLEEEAVRLFIEWLLAGGGGGGSGGGGSGGGGSGGGGSATHTCPPCPAPEF	9.1	100	5.1	230	100	23	1000	–	–	–	–	–	–	–
IP266 (Fc fusion) YSEGTFTSDYSKLLEEEAVRLFIEWLLAGAPPGGSGGGGSGGGGSGGGGSATHTCPPCPAPEF	12	300	0.3	38	150	16	760	–	–	–	–	–	–	–
IP201 (Fc fusion) YSEGTFTSDYSKLLEEEAVRLFIEWLLAGPSSGAPPPSAAAGGSGSTASSGSGSATGGGGAATHTCPPCPAPEF	11	98	4.3	230	200	3.9	650	34	28	1.6	19	560	11	410
